Results from PMC5297747, “Pnserpin: A Novel Serine Protease Inhibitor from Extremophile Pyrobaculum neutrophilum” (International Journal of Molecular Sciences, 2017).

B1: Pnserpin (natural protein, Pyrobaculum neutrophilum, UniProt B1YBN4 1-393, looked up)
chain: MRLWALLPVTLALVVLLIFIVSLKEASTHSPPTSHTSAPAPLESGSYGDFAVSFYKRIALERLRENLVLSPYSVYKAFAMAYAGAAGETREEIGRVFGFGDDVCALAQAGRGVEEAVAAWVQLGFPLREEYERELSCLGAELRRVDFAERSALVEINRWIEEKTRGYVKDLIPTDYPRSQDIRVVLTSALFFNGSWWPLQFGRIGKREFQGVGPVEFMKLDLGSCVPSLRGRVSADLTVVELRFENTDVAMYVIMPKSLEDYVKGLTYEKLKRDITELPDEIVAVTMPLFTAEFKDSLKKVLIDIGIRSAFDKTRANFTRMSPIRIYIDEVFHGAYIKADEKGVVATAATAVVFVPVCAKVGGMEVVIDRPFLFVLADRRDGTIYFIGHVVKP
B2: subtilisin Carlsberg (enzyme, UniProt P00780 106-379, looked up)
chain: AQTVPYGIPLIKADKVQAQGFKGANVKVAVLDTGIQASHPDLNVVGGASFVAGEAYNTDGNGHGTHVAGTVAALDNTTGVLGVAPSVSLYAVKVLNSSGSGSYSGIVSGIEWATTNGMDVINMSLGGASGSTAMKQAVDNAYAKGVVVVAAAGNSGSSGNTNTIGYPAKYDSVIAVGAVDSNSNRASFSSVGAELEVMAPGAGVYSTYPTNTYATLNGTSMASPHVAGAAALILSKHPNLSASQVRNRLSSTATYLGSSFYYGKGLINVEAAAQ
notes: subtilisin Carlsberg; printed molecular weight 27 kD; also called SUC
B3: proteinase k (enzyme, UniProt P06873 106-384, looked up)
chain: AAQTNAPWGLARISSTSPGTSTYYYDESAGQGSCVYVIDTGIEASHPEFEGRAQMVKTYYYSSRDGNGHGTHCAGTVGSRTYGVAKKTQLFGVKVLDDNGSGQYSTIIAGMDFVASDKNNRNCPKGVVASLSLGGGYSSSVNSAAARLQSSGVMVAVAAGNNNADARNYSPASEPSVCTVGASDRYDRRSSFSNYGSVLDIFGPGTSILSTWIGGSTRSISGTSMATPHVAGLAAYLMTLGKTTAASACRYIADTANKGDLSNIPFGTVNLLAYNNYQA
notes: proteinase K; printed molecular weight 28 kD; also called PRK
B4: PnCHT, chymotrypsin-like serine protease of Pyrobaculum neutrophilum (enzyme, UniProt B1YBJ2 1-289, looked up)
chain: MDLSGLVEKVARSVVGVAARGVGAVGEGFGSAFAIDRGVYATAYHVVAQAGEVALITPEGEVADAVVAAADPAEDLAILYSDLYAVPLSLGSALRLRVGQGVVAVGFPLALLDKPTATFGIVSAVGRSLRAGDRFFEYLVQTDAAINPGNSGGPLVNLSGEAVGVCSAVIAGAQGLGFAVPIDLVRIMYQMVKRYGRYVRPALGVYVVALNKALKALYGLPTDRGLLVVDVVPSSPAEEMGIARGDILTKVDGREVANVFELRLLIGEALIQGRTPRIEVIRGGRRIEL
notes: chymotrypsin-like serine protease of Pyrobaculum neutrophilum, GenBank ACB40794.1; full length gene synthesized and cloned into pET-28a(+); printed molecular weight 36 kD; source: E. coli BL21 (DE3) CodonPlus, purified (nickel-chelating chromatography)

How the values were obtained:
[1] = molecular target: B2; experiment: cell-based or functional assay
[2] = molecular target: B4; experiment: cell-based or functional assay
[3] = molecular target: B3; experiment: cell-based or functional assay
[4] = molecular target: bovine plasma thrombin (bovine); experiment: cell-based or functional assay
[5] = molecular target: bovine pancreatic trypsin (bovine); experiment: cell-based or functional assay
Chain of bovine pancreatic trypsin (bovine) (P00760 24-246): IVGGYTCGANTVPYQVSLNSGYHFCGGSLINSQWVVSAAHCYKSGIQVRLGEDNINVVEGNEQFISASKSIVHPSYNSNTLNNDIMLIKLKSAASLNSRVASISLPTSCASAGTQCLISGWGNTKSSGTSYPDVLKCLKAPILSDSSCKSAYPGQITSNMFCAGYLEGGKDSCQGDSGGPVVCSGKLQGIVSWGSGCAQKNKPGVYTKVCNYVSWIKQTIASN

[6] = molecular target: porcine pancreatic elastase (porcine, UniProt P00772 27-266); experiment: cell-based or functional assay
Chain of porcine pancreatic elastase (P00772 27-266): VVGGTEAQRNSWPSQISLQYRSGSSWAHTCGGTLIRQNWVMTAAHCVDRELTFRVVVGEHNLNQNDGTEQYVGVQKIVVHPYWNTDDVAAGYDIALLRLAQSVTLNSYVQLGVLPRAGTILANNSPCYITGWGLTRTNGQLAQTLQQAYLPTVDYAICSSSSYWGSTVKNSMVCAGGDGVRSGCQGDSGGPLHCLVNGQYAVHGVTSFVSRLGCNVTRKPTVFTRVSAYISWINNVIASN

[7] = molecular target: B1; experiment: progress curve of protease inhibition; 40 °C; buffer B (100 mM HEPES-NaOH pH 7.5, 200 mM NaCl, 10 mM CaCl2, 0.01% triton X-100, 0.1% glycerol); 1 mM Suc-AAPF-pNA or MeO-SucAAPV-pNA as substrate; various concentrations of Pnserpin; absorption at 410 nm; kass = kunc × (1 + [S]/KM); settings: both partners purified
[8] = molecular target: B1; experiment: progress curve of protease inhibition; 80 °C; buffer B; 1 mM Suc-AAPF-pNA as substrate; various concentrations of Pnserpin; absorption at 410 nm; kass = kunc × (1 + [S]/KM); settings: both partners purified

B1
stoichiometry of inhibition (SI), incubation at 20 °C; residual protease activity [1]: 10 | stoichiometry of inhibition (SI), incubation at 30 °C; residual protease activity [1]: 8.76 | stoichiometry of inhibition (SI), incubation at 40 °C; residual protease activity [1]: 6.95 | stoichiometry of inhibition (SI), incubation at 50 °C; residual protease activity [1]: 5.34 | stoichiometry of inhibition (SI), incubation at 60 °C; residual protease activity [1]: 3.97 | stoichiometry of inhibition (SI), incubation at 70 °C; residual protease activity [1]: 2.67 | stoichiometry of inhibition (SI), incubation at 20 °C; residual protease activity [2]: 32.7 | stoichiometry of inhibition (SI), incubation at 40 °C; residual protease activity [2]: 23.9 | stoichiometry of inhibition (SI), incubation at 60 °C; residual protease activity [2]: 19.8 | stoichiometry of inhibition (SI), incubation at 80 °C; residual protease activity [2]: 11.3 | stoichiometry of inhibition (SI), incubation at 100 °C; residual protease activity [2]: 6.82 | stoichiometry of inhibition (SI), incubation at 20 °C; residual protease activity [3]: 9.99 | stoichiometry of inhibition (SI), incubation at 30 °C; residual protease activity [3]: 7.39 | stoichiometry of inhibition (SI), incubation at 40 °C; residual protease activity [3]: 5.99 | stoichiometry of inhibition (SI), incubation at 50 °C; residual protease activity [3]: 4.69 | stoichiometry of inhibition (SI), incubation at 60 °C; residual protease activity [3]: 2.75 | stoichiometry of inhibition (SI), incubation at 70 °C; residual protease activity [3]: 2.28 | stoichiometry of inhibition (SI), incubation at 20 °C; residual protease activity [4]: 21.1 | stoichiometry of inhibition (SI), incubation at 30 °C; residual protease activity [4]: 15.2 | stoichiometry of inhibition (SI), incubation at 40 °C; residual protease activity [4]: 12.2 | stoichiometry of inhibition (SI), incubation at 50 °C; residual protease activity [4]: 9.31 | stoichiometry of inhibition (SI), incubation at 20 °C; residual protease activity [5]: 10.2 | stoichiometry of inhibition (SI), incubation at 30 °C; residual protease activity [5]: 6.14 | stoichiometry of inhibition (SI), incubation at 40 °C; residual protease activity [5]: 5.16 | stoichiometry of inhibition (SI), incubation at 50 °C; residual protease activity [5]: 2.53 | stoichiometry of inhibition (SI), incubation at 20 °C; residual protease activity [6]: 10.1 | stoichiometry of inhibition (SI), incubation at 30 °C; residual protease activity [6]: 9.33 | stoichiometry of inhibition (SI), incubation at 40 °C; residual protease activity [6]: 7.9 | stoichiometry of inhibition (SI), incubation at 50 °C; residual protease activity [6]: 7.41 | stoichiometry of inhibition (SI), incubation at 60 °C; residual protease activity [6]: 4.84 | stoichiometry of inhibition (SI), incubation at 70 °C; residual protease activity [6]: 2.74

B2
kon [7]: 130000 M⁻¹ s⁻¹

B3
kon [7]: 198000 M⁻¹ s⁻¹

B4
kon [7]: 39000 M⁻¹ s⁻¹ | kon [8]: 107000 M⁻¹ s⁻¹
